Drawing on ChEMBL document CHEMBL2073968, “Multidrug resistance protein 4 (MRP4/ABCC4) mediates efflux of bimane-glutathione” (Int J Biochem Cell Biol, 2004), this text covers Km for one protein.

Substrate in this data set: [H][C@@]12CC=C3C[C@@H](OS(=O)(=O)O)CC[C@]3(C)[C@@]1([H])CC[C@]1(C)C(=O)CC[C@@]21[H]
Briefly: TP_TRANSPORTER: uptake in membrane vesicles from MRP1-expressing Sf9 cells. It is filed as functional, cell membranes, Membrane vesicle.

B1: Multidrug resistance-associated protein 1 (Homo sapiens) (protein)
chain: MALRGFCSADGSDPLWDWNVTWNTSNPDFTKCFQNTVLVWVPCFYLWACFPFYFLYLSRHDRGYIQMTPLNKTKTALGFLLWIVCWADLFYSFWERSRGIFLAPVFLVSPTLLGITMLLATFLIQLERRKGVQSSGIMLTFWLVALVCALAILRSKIMTALKEDAQVDLFRDITFYVYFSLLLIQLVLSCFSDRSPLFSETIHDPNPCPESSASFLSRITFWWITGLIVRGYRQPLEGSDLWSLNKEDTSEQVVPVLVKNWKKECAKTRKQPVKVVYSSKDPAQPKESSKVDANEEVEALIVKSPQKEWNPSLFKVLYKTFGPYFLMSFFFKAIHDLMMFSGPQILKLLIKFVNDTKAPDWQGYFYTVLLFVTACLQTLVLHQYFHICFVSGMRIKTAVIGAVYRKALVITNSARKSSTVGEIVNLMSVDAQRFMDLATYINMIWSAPLQVILALYLLWLNLGPSVLAGVAVMVLMVPVNAVMAMKTKTYQVAHMKSKDNRIKLMNEILNGIKVLKLYAWELAFKDKVLAIRQEELKVLKKSAYLSAVGTFTWVCTPFLVALCTFAVYVTIDENNILDAQTAFVSLALFNILRFPLNILPMVISSIVQASVSLKRLRIFLSHEELEPDSIERRPVKDGGGTNSITVRNATFTWARSDPPTLNGITFSIPEGALVAVVGQVGCGKSSLLSALLAEMDKVEGHVAIKGSVAYVPQQAWIQNDSLRENILFGCQLEEPYYRSVIQACALLPDLEILPSGDRTEIGEKGVNLSGGQKQRVSLARAVYSNADIYLFDDPLSAVDAHVGKHIFENVIGPKGMLKNKTRILVTHSMSYLPQVDVIIVMSGGKISEMGSYQELLARDGAFAEFLRTYASTEQEQDAEENGVTGVSGPGKEAKQMENGMLVTDSAGKQLQRQLSSSSSYSGDISRHHNSTAELQKAEAKKEETWKLMEADKAQTGQVKLSVYWDYMKAIGLFISFLSIFLFMCNHVSALASNYWLSLWTDDPIVNGTQEHTKVRLSVYGALGISQGIAVFGYSMAVSIGGILASRCLHVDLLHSILRSPMSFFERTPSGNLVNRFSKELDTVDSMIPEVIKMFMGSLFNVIGACIVILLATPIAAIIIPPLGLIYFFVQRFYVASSRQLKRLESVSRSPVYSHFNETLLGVSVIRAFEEQERFIHQSDLKVDENQKAYYPSIVANRWLAVRLECVGNCIVLFAALFAVISRHSLSAGLVGLSVSYSLQVTTYLNWLVRMSSEMETNIVAVERLKEYSETEKEAPWQIQETAPPSSWPQVGRVEFRNYCLRYREDLDFVLRHINVTINGGEKVGIVGRTGAGKSSLTLGLFRINESAEGEIIIDGINIAKIGLHDLRFKITIIPQDPVLFSGSLRMNLDPFSQYSDEEVWTSLELAHLKDFVSALPDKLDHECAEGGENLSVGQRQLVCLARALLRKTKILVLDEATAAVDLETDDLIQSTIRTQFEDCTVLTIAHRLNTIMDYTRVIVLDKGEIQEYGAPSDLLQQRGLFYSMAKDAGLV
As usually defined, the Km is the substrate concentration at which the rate is half of its maximum. Regarding B1, the Km was determined as 5 µM.
